Reference: US20180155451A1 (published 2018)

target: T1, FcγRIa (human, UniProt P12314 16-292); assay: SPR; vs GpH7-B3/GpL16-k0=100
T1 construct: extracellular domain; also called FcgRI; CD64
T1 sequence (P12314 16-292): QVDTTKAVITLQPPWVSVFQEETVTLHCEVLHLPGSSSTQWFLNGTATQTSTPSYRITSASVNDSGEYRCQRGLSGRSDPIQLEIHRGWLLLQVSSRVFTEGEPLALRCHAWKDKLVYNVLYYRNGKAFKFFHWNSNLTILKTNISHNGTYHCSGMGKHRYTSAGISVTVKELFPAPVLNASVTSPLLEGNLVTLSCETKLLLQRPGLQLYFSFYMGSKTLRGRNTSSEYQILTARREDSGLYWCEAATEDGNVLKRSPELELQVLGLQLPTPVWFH

Binder | Ho/Con_1a
GpH7-B3 variant H268_14T/GpL16-k0 (antibody, human IgG1, kappa, homodimerized; also called Ho Ab H268_14T) heavy: not shown light: DIVMTQSPLSLPVTPGEPASISCQASESLVHSNRNTYLHWYLQKPGQSPQLLIYKVSNRFSGVPDRFSGSGSGTDFTLKISRVEAEDVGVYYCSQNTHVPPTFGQGTKVEIERTVAAPSVFIFPPSDEQLKSGTASVVCLLNNFYPREAKVQWKVDNALQSGNSQESVTEQDSKDSTYSLSSTLTLSKADYEKHKVYACEVTHQGLSSPVTKSFNRGEC | 109 % of control
GpH7-B3 variant I336_01G/GpL16-k0 (antibody, human IgG1, kappa, homodimerized; also called Ho Ab I336_01G) heavy: not shown light: DIVMTQSPLSLPVTPGEPASISCQASESLVHSNRNTYLHWYLQKPGQSPQLLIYKVSNRFSGVPDRFSGSGSGTDFTLKISRVEAEDVGVYYCSQNTHVPPTFGQGTKVEIERTVAAPSVFIFPPSDEQLKSGTASVVCLLNNFYPREAKVQWKVDNALQSGNSQESVTEQDSKDSTYSLSSTLTLSKADYEKHKVYACEVTHQGLSSPVTKSFNRGEC | 104 % of control
GpH7-B3 variant I336_02A/GpL16-k0 (antibody, human IgG1, kappa, homodimerized; also called Ho Ab I336_02A) heavy: not shown light: DIVMTQSPLSLPVTPGEPASISCQASESLVHSNRNTYLHWYLQKPGQSPQLLIYKVSNRFSGVPDRFSGSGSGTDFTLKISRVEAEDVGVYYCSQNTHVPPTFGQGTKVEIERTVAAPSVFIFPPSDEQLKSGTASVVCLLNNFYPREAKVQWKVDNALQSGNSQESVTEQDSKDSTYSLSSTLTLSKADYEKHKVYACEVTHQGLSSPVTKSFNRGEC | 103 % of control
GpH7-B3 variant K334_06M/GpL16-k0 (antibody, human IgG1, kappa, homodimerized; also called Ho Ab K334_06M) heavy: not shown light: DIVMTQSPLSLPVTPGEPASISCQASESLVHSNRNTYLHWYLQKPGQSPQLLIYKVSNRFSGVPDRFSGSGSGTDFTLKISRVEAEDVGVYYCSQNTHVPPTFGQGTKVEIERTVAAPSVFIFPPSDEQLKSGTASVVCLLNNFYPREAKVQWKVDNALQSGNSQESVTEQDSKDSTYSLSSTLTLSKADYEKHKVYACEVTHQGLSSPVTKSFNRGEC | 104 % of control
GpH7-B3 variant I336_04F/GpL16-k0 (antibody, human IgG1, kappa, homodimerized; also called Ho Ab I336_04F) heavy: not shown light: DIVMTQSPLSLPVTPGEPASISCQASESLVHSNRNTYLHWYLQKPGQSPQLLIYKVSNRFSGVPDRFSGSGSGTDFTLKISRVEAEDVGVYYCSQNTHVPPTFGQGTKVEIERTVAAPSVFIFPPSDEQLKSGTASVVCLLNNFYPREAKVQWKVDNALQSGNSQESVTEQDSKDSTYSLSSTLTLSKADYEKHKVYACEVTHQGLSSPVTKSFNRGEC | 104 % of control
GpH7-B3 variant K326_16H/GpL16-k0 (antibody, human IgG1, kappa, homodimerized; also called Ho Ab K326_16H) heavy: not shown light: DIVMTQSPLSLPVTPGEPASISCQASESLVHSNRNTYLHWYLQKPGQSPQLLIYKVSNRFSGVPDRFSGSGSGTDFTLKISRVEAEDVGVYYCSQNTHVPPTFGQGTKVEIERTVAAPSVFIFPPSDEQLKSGTASVVCLLNNFYPREAKVQWKVDNALQSGNSQESVTEQDSKDSTYSLSSTLTLSKADYEKHKVYACEVTHQGLSSPVTKSFNRGEC | 101 % of control
GpH7-B3 variant I336_06M/GpL16-k0 (antibody, human IgG1, kappa, homodimerized; also called Ho Ab I336_06M) heavy: not shown light: DIVMTQSPLSLPVTPGEPASISCQASESLVHSNRNTYLHWYLQKPGQSPQLLIYKVSNRFSGVPDRFSGSGSGTDFTLKISRVEAEDVGVYYCSQNTHVPPTFGQGTKVEIERTVAAPSVFIFPPSDEQLKSGTASVVCLLNNFYPREAKVQWKVDNALQSGNSQESVTEQDSKDSTYSLSSTLTLSKADYEKHKVYACEVTHQGLSSPVTKSFNRGEC | 104 % of control
GpH7-B3 variant K326_12R/GpL16-k0 (antibody, human IgG1, kappa, homodimerized; also called Ho Ab K326_12R) heavy: not shown light: DIVMTQSPLSLPVTPGEPASISCQASESLVHSNRNTYLHWYLQKPGQSPQLLIYKVSNRFSGVPDRFSGSGSGTDFTLKISRVEAEDVGVYYCSQNTHVPPTFGQGTKVEIERTVAAPSVFIFPPSDEQLKSGTASVVCLLNNFYPREAKVQWKVDNALQSGNSQESVTEQDSKDSTYSLSSTLTLSKADYEKHKVYACEVTHQGLSSPVTKSFNRGEC | 100 % of control
GpH7-B3 variant I336_10E/GpL16-k0 (antibody, human IgG1, kappa, homodimerized; also called Ho Ab I336_10E) heavy: not shown light: DIVMTQSPLSLPVTPGEPASISCQASESLVHSNRNTYLHWYLQKPGQSPQLLIYKVSNRFSGVPDRFSGSGSGTDFTLKISRVEAEDVGVYYCSQNTHVPPTFGQGTKVEIERTVAAPSVFIFPPSDEQLKSGTASVVCLLNNFYPREAKVQWKVDNALQSGNSQESVTEQDSKDSTYSLSSTLTLSKADYEKHKVYACEVTHQGLSSPVTKSFNRGEC | 107 % of control
GpH7-B3 variant K326_14T/GpL16-k0 (antibody, human IgG1, kappa, homodimerized; also called Ho Ab K326_14T) heavy: not shown light: DIVMTQSPLSLPVTPGEPASISCQASESLVHSNRNTYLHWYLQKPGQSPQLLIYKVSNRFSGVPDRFSGSGSGTDFTLKISRVEAEDVGVYYCSQNTHVPPTFGQGTKVEIERTVAAPSVFIFPPSDEQLKSGTASVVCLLNNFYPREAKVQWKVDNALQSGNSQESVTEQDSKDSTYSLSSTLTLSKADYEKHKVYACEVTHQGLSSPVTKSFNRGEC | 103 % of control
GpH7-B3 variant I336_18N/GpL16-k0 (antibody, human IgG1, kappa, homodimerized; also called Ho Ab I336_18N) heavy: not shown light: DIVMTQSPLSLPVTPGEPASISCQASESLVHSNRNTYLHWYLQKPGQSPQLLIYKVSNRFSGVPDRFSGSGSGTDFTLKISRVEAEDVGVYYCSQNTHVPPTFGQGTKVEIERTVAAPSVFIFPPSDEQLKSGTASVVCLLNNFYPREAKVQWKVDNALQSGNSQESVTEQDSKDSTYSLSSTLTLSKADYEKHKVYACEVTHQGLSSPVTKSFNRGEC | 104 % of control
GpH7-B3 variant I332_12R/GpL16-k0 (antibody, human IgG1, kappa, homodimerized; also called Ho Ab I332_12R) heavy: not shown light: DIVMTQSPLSLPVTPGEPASISCQASESLVHSNRNTYLHWYLQKPGQSPQLLIYKVSNRFSGVPDRFSGSGSGTDFTLKISRVEAEDVGVYYCSQNTHVPPTFGQGTKVEIERTVAAPSVFIFPPSDEQLKSGTASVVCLLNNFYPREAKVQWKVDNALQSGNSQESVTEQDSKDSTYSLSSTLTLSKADYEKHKVYACEVTHQGLSSPVTKSFNRGEC | 93.2 % of control
GpH7-B3 variant H268_20W/GpL16-k0 (antibody, human IgG1, kappa, homodimerized; also called Ho Ab H268_20W) heavy: not shown light: DIVMTQSPLSLPVTPGEPASISCQASESLVHSNRNTYLHWYLQKPGQSPQLLIYKVSNRFSGVPDRFSGSGSGTDFTLKISRVEAEDVGVYYCSQNTHVPPTFGQGTKVEIERTVAAPSVFIFPPSDEQLKSGTASVVCLLNNFYPREAKVQWKVDNALQSGNSQESVTEQDSKDSTYSLSSTLTLSKADYEKHKVYACEVTHQGLSSPVTKSFNRGEC | 106 % of control
GpH7-B3 variant K326_15Y/GpL16-k0 (antibody, human IgG1, kappa, homodimerized; also called Ho Ab K326_15Y) heavy: not shown light: DIVMTQSPLSLPVTPGEPASISCQASESLVHSNRNTYLHWYLQKPGQSPQLLIYKVSNRFSGVPDRFSGSGSGTDFTLKISRVEAEDVGVYYCSQNTHVPPTFGQGTKVEIERTVAAPSVFIFPPSDEQLKSGTASVVCLLNNFYPREAKVQWKVDNALQSGNSQESVTEQDSKDSTYSLSSTLTLSKADYEKHKVYACEVTHQGLSSPVTKSFNRGEC | 101 % of control
GpH7-B3 variant I336_03V/GpL16-k0 (antibody, human IgG1, kappa, homodimerized; also called Ho Ab I336_03V) heavy: not shown light: DIVMTQSPLSLPVTPGEPASISCQASESLVHSNRNTYLHWYLQKPGQSPQLLIYKVSNRFSGVPDRFSGSGSGTDFTLKISRVEAEDVGVYYCSQNTHVPPTFGQGTKVEIERTVAAPSVFIFPPSDEQLKSGTASVVCLLNNFYPREAKVQWKVDNALQSGNSQESVTEQDSKDSTYSLSSTLTLSKADYEKHKVYACEVTHQGLSSPVTKSFNRGEC | 105 % of control
GpH7-B3 variant K326_18N/GpL16-k0 (antibody, human IgG1, kappa, homodimerized; also called Ho Ab K326_18N) heavy: not shown light: DIVMTQSPLSLPVTPGEPASISCQASESLVHSNRNTYLHWYLQKPGQSPQLLIYKVSNRFSGVPDRFSGSGSGTDFTLKISRVEAEDVGVYYCSQNTHVPPTFGQGTKVEIERTVAAPSVFIFPPSDEQLKSGTASVVCLLNNFYPREAKVQWKVDNALQSGNSQESVTEQDSKDSTYSLSSTLTLSKADYEKHKVYACEVTHQGLSSPVTKSFNRGEC | 102 % of control

Other lines, results leading:

Ho/Con_1a | Binder
98.2 % of control | GpH7-B3 variant L234_03V/GpL16-k0 (antibody, human IgG1, kappa, homodimerized; also called Ho Ab L234_03V) heavy: not shown light: DIVMTQSPLSLPVTPGEPASISCQASESLVHSNRNTYLHWYLQKPGQSPQLLIYKVSNRFSGVPDRFSGSGSGTDFTLKISRVEAEDVGVYYCSQNTHVPPTFGQGTKVEIERTVAAPSVFIFPPSDEQLKSGTASVVCLLNNFYPREAKVQWKVDNALQSGNSQESVTEQDSKDSTYSLSSTLTLSKADYEKHKVYACEVTHQGLSSPVTKSFNRGEC
107 % of control | GpH7-B3 variant K334_10E/GpL16-k0 (antibody, human IgG1, kappa, homodimerized; also called Ho Ab K334_10E) heavy: not shown light: DIVMTQSPLSLPVTPGEPASISCQASESLVHSNRNTYLHWYLQKPGQSPQLLIYKVSNRFSGVPDRFSGSGSGTDFTLKISRVEAEDVGVYYCSQNTHVPPTFGQGTKVEIERTVAAPSVFIFPPSDEQLKSGTASVVCLLNNFYPREAKVQWKVDNALQSGNSQESVTEQDSKDSTYSLSSTLTLSKADYEKHKVYACEVTHQGLSSPVTKSFNRGEC
99.5 % of control | GpH7-B3 variant L234_07I/GpL16-k0 (antibody, human IgG1, kappa, homodimerized; also called Ho Ab L234_07I) heavy: not shown light: DIVMTQSPLSLPVTPGEPASISCQASESLVHSNRNTYLHWYLQKPGQSPQLLIYKVSNRFSGVPDRFSGSGSGTDFTLKISRVEAEDVGVYYCSQNTHVPPTFGQGTKVEIERTVAAPSVFIFPPSDEQLKSGTASVVCLLNNFYPREAKVQWKVDNALQSGNSQESVTEQDSKDSTYSLSSTLTLSKADYEKHKVYACEVTHQGLSSPVTKSFNRGEC
96.5 % of control | GpH7-B3 variant L234_06M/GpL16-k0 (antibody, human IgG1, kappa, homodimerized; also called Ho Ab L234_06M) heavy: not shown light: DIVMTQSPLSLPVTPGEPASISCQASESLVHSNRNTYLHWYLQKPGQSPQLLIYKVSNRFSGVPDRFSGSGSGTDFTLKISRVEAEDVGVYYCSQNTHVPPTFGQGTKVEIERTVAAPSVFIFPPSDEQLKSGTASVVCLLNNFYPREAKVQWKVDNALQSGNSQESVTEQDSKDSTYSLSSTLTLSKADYEKHKVYACEVTHQGLSSPVTKSFNRGEC
93.5 % of control | GpH7-B3 variant L234_04F/GpL16-k0 (antibody, human IgG1, kappa, homodimerized; also called Ho Ab L234_04F) heavy: not shown light: DIVMTQSPLSLPVTPGEPASISCQASESLVHSNRNTYLHWYLQKPGQSPQLLIYKVSNRFSGVPDRFSGSGSGTDFTLKISRVEAEDVGVYYCSQNTHVPPTFGQGTKVEIERTVAAPSVFIFPPSDEQLKSGTASVVCLLNNFYPREAKVQWKVDNALQSGNSQESVTEQDSKDSTYSLSSTLTLSKADYEKHKVYACEVTHQGLSSPVTKSFNRGEC
102 % of control | GpH7-B3 variant K334_12R/GpL16-k0 (antibody, human IgG1, kappa, homodimerized; also called Ho Ab K334_12R) heavy: not shown light: DIVMTQSPLSLPVTPGEPASISCQASESLVHSNRNTYLHWYLQKPGQSPQLLIYKVSNRFSGVPDRFSGSGSGTDFTLKISRVEAEDVGVYYCSQNTHVPPTFGQGTKVEIERTVAAPSVFIFPPSDEQLKSGTASVVCLLNNFYPREAKVQWKVDNALQSGNSQESVTEQDSKDSTYSLSSTLTLSKADYEKHKVYACEVTHQGLSSPVTKSFNRGEC
104 % of control | GpH7-B3 variant K334_20W/GpL16-k0 (antibody, human IgG1, kappa, homodimerized; also called Ho Ab K334_20W) heavy: not shown light: DIVMTQSPLSLPVTPGEPASISCQASESLVHSNRNTYLHWYLQKPGQSPQLLIYKVSNRFSGVPDRFSGSGSGTDFTLKISRVEAEDVGVYYCSQNTHVPPTFGQGTKVEIERTVAAPSVFIFPPSDEQLKSGTASVVCLLNNFYPREAKVQWKVDNALQSGNSQESVTEQDSKDSTYSLSSTLTLSKADYEKHKVYACEVTHQGLSSPVTKSFNRGEC
